Experimental findings from patent US20220112295A1 (Novo Nordisk, published 2022) are described below.

Assay [1] deals with T1, FLAG-hCD30L-EC (N153Q) treated with PNGaseF (human).
T1 construct: also called FLAG-hCD30L-EC + PNGaseF
T1 chain: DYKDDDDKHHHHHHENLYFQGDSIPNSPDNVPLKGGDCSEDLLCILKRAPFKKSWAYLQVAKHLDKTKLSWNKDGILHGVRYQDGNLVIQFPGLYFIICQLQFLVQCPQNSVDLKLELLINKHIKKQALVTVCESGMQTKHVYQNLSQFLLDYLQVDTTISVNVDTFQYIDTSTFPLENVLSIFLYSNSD
Kind of assay: HX-MS, 6 uM hCD30L with 6.6 uM mAb.

Assay [2] deals with T2, recombinant human CD30L isoleucine zipper (huCD30L LZ) (human, UniProt P32971 63-234).
T2 construct: also called huCD38L LZ; CD30L LZ Hu; not shown: N-terminal isoleucine zipper motif (leucine zipper with leucines replaced by isoleucines)
T2 sequence: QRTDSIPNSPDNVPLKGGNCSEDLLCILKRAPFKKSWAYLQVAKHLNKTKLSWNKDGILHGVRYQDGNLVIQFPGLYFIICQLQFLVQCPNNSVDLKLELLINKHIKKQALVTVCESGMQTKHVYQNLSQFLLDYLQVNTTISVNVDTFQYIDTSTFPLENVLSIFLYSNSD
Kind of assay: blocking of human CD30L LZ binding to K299 cells (CD30).

In assay [3] the target is T3, native human CD30L expressed on Ramos cells (human, UniProt P32971 1-234).
T3 construct: It is used here for the native protein on human B cell lines; also called huCD30L; Native huCD30L
T3 sequence: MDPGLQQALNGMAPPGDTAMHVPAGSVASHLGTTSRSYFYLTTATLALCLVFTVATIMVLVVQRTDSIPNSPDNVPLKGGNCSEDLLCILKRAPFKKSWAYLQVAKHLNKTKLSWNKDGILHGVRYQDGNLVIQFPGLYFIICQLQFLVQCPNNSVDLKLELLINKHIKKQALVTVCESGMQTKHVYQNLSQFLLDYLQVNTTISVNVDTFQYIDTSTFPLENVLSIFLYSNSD
Description: FACS, native human CD30L on Ramos cells. Here is the method: The supernatants were purified and recombinant antibodies were expressed as IgG1 and IgG2 constructs. The antibodies were rescreened for binding to native human and cynomologous monkey CD30L. Briefly, human Burkitt's lymphoma Ramos cells (3×10⁵/well) were incubated in round-bottomed 96-well microtiter plates (Costar® 96 well plate (Corning; Acton, Mass.) with a titration (10 μg/mL to 3.2 ng/mL final concentration) of anti-CD30L IgG antibodies in blocking buffer (PBS containing 0.02% sodium azide, 2% normal goat serum and 1% normal rabbit serum). Human […] fusion protein was included as a positive control for binding. Cells were incubated for 30 minutes at 4° C. then washed ×2 with PBS and incubated for a further 30 minutes at 4° C. with 30 μL/well of anti-hu IgG-biotin (1:50 in blocking buffer; Jackson Immunoresearch, West Grove, Pa.). After washing ×2 with PBS, cells were incubated for 30 minutes at 4° C. with 30 μL/well (1:50 dilution in PBS) of Streptavidin-Phycoerythrin (PE; Molecular Probes, Eugene, Oreg.). Cells were washed 2× with PBS and prepared for FACs analysis.

The target in assay [4] is T4, cyno CD30L LZ (cynomolgus monkey, UniProt A0A7N9CVX7 63-234).
T4 construct: extracellular domain; not shown: N-terminal isoleucine zipper motif
T4 sequence: T2 sequence with V13I, K16R, I142V, I165V
Kind of assay: blocking of cyno CD30L LZ binding to K299 cells (CD30). Here is the method: Anti-CD30L IgG antibodies were titrated into culture diluent (RPMI-1640 medium+10% heat-inactivated fetal bovine serum) and placed into round-bottomed 96-well microtiter plates (Costar® 96 well plate (Corning; Acton, Mass.) to give a range of final concentrations from luglmi to 10 pg/ml. As a positive control, a mouse anti-human CD30L monoclonal antibody was prepared as described in U.S. Pat. No. 5,480,981. The final volume of diluent and CD30L IgG was 100 μl/well. To each well was then added 50 µl of recombinant human CD30L isoleucine zipper ([…]). The huCD30L LZ construct consists of the extracellular domain of human CD30L (see U.S. Pat. No. 5,480,981) linked at its N-terminus to an isoleucine zipper motif modified by replacing the leucine residues with isoleucine residues. The single cell assay was also used to determine cyno cross-reactivity using a cyno CD30L LZ instead of the huCD30L LZ. CynoCD30L LZ was prepared as described for the human LZ molecule.
The plates were incubated for 45 minutes at room temperature. To each well was added 50 μl of K299 cells (4×10⁵ cells/ml). The plates were then incubated for 24 hours at 37° C. 5% CO₂.
The amount of IL-8 in the cell supernatants was determined by sandwich ELISA, using a CDCL8/IL-8 ELISA DuoSet kit according to the manufacturer's instructions (R&D Systems, Minneapolis, Minn.). IL-8 levels were interpolated from the ELISA standard curve using DeltaSoft 3 version 2.2 software (DeltaSoft, Inc. Hillsborough, N.J.). At results were expressed as the mean It standard error of the mean (SEM) for 3 replicate cultures calculated by GraphPad PRISM software v. 4.01 (GraphPad Software Inc., San Diego, Calif.) as were the IC₅₀ values. The IC₅₀ value derived using the huCD30L LZ for Antibody A1 was 2700 pM. The results using the cynoCD30L LZ can be found in Table 5.

The target in assay [5] is T4, cyno CD30L LZ. Kind of assay: cell-based or functional assay.
The target in assay [6] is T3, native human CD30L expressed on Ramos …. Description: cell-based or functional assay.

Substitutions are numbered along the chain they refer to.

For orientation: IC50 means the point on the concentration scale where inhibition reaches its midpoint. Usually EC50 stands for the concentration needed to bring the measured effect to its halfway point. Higher therefore signals a need for much substance.

B1: Antibody E (antibody, V domains shown)
VH: QVQLQESGPRLVKPSETLSLTCTVSGGSITNNYWSWIRQPAGKGLEWIGRVYSSGLTNYKPSLKSRVTMSVDTSKNQFSLRLNSVTAADTAVYYCARERATVTTRYHYDGMDVWGQGTSVTVSS
VL: QSALTQPASVSGSPGQSITISCTGSSSDIGTYNYVSWYQQYPGKAPELMIYEVNNRPSGVSDRFSGSTSGNTASLTISGLQANDEADYYCSSYSSSSTWVFGGGTKLTVL
notes: also called mAb E
B1: in assay [1], the binding result is “binds”. Besides, the values for the half-maximal inhibitory concentration (IC50) in assay [2] and in assay [4] were 2.1 nM and 1.3 nM, respectively. The same molecule came in with an EC50 in assay [3] of 3.3 nM. The “IC50, inhibition of IL-8 release (K299 single cell assay with cyno CD30L LZ)” value in assay [5] is 5.4 nM. Also, the “IC50, inhibition of IL-8 release (K299/Ramos dual cell assay)” value in assay [6] turned out to be 45 pM.

B2: Antibody A (antibody, V domains shown)
VH: QVQLQESGPGLVKPSETLSLTCTVSGGSISSYIWSWIRQPAGKGLEWIGRIYASGNTNYNPSLKSRVTMSVDTSKNQFSLKLSSMTAADTAVYYCARDYRVAGTYYYYYGLDVWGQGTTVTVSS
VL: QSALTQPASVSGSPGQSITISCTGTSSDVGVYDYVSWYQQHPGKAPKLMIYEVSNRPSGVSNRFSGSKSGNTASLTISGLQTEDEADYYCSSYTSRSTWVFGGGTKLTVL
notes: Human antibody (XenoMouse); also called mAb A; anti-hCD30L A
For B2, the figures for the IC50 in assay [2] and in assay [4] were 1.5 nM and 1.4 nM, respectively. The EC50 in assay [3] was 1.7 nM. For the same molecule, the “IC50, inhibition of IL-8 release (K299 single cell assay with cyno CD30L LZ)” value in assay [5] was found to be 2 nM. The “IC50, inhibition of IL-8 release (K299/Ramos dual cell assay)” value in assay [6] was 28 pM.

B3: Antibody B (antibody, V domains shown)
VH: QVQLQESGPGLVKPSETLSLTCTVSGGSISSYYWTWIRQPAGKGLEWIGRIYTSGITNYNPSLKSRVTMSVDTSKNQFSLKLSSVTAADTAVYYCARERVVGASRYYYYGVDVWGQGTTVTVSS
VL: B2 VL with V31L, D33N, G43D, Y51F, S54N, K68N, T82A, R96S
notes: also called mAb B
Regarding B3, the half-inhibitory concentration (IC50) in assay [2] came to 2.5 nM. For the same molecule, the half-maximal effective concentration (EC50) in assay [3] was 3.1 nM. For the same molecule, the “IC50, inhibition of IL-8 release (K299 single cell assay with cyno CD30L LZ)” value in assay [5] is 5.6 nM. Further, the “IC50, inhibition of IL-8 release (K299/Ramos dual cell assay)” value in assay [6] was determined as 72 pM.

B4: Antibody D (antibody, V domains shown)
VH: QVQLQESGPGLVKPSETLSLTCTVSGGSISSYSWSWIRQPAGKGLEWIGRTSTSGRNNYNPSLKSRVTMSVDTSKNQFSLKLNSVTAADTAVYYCARDFTIAARRYYYYGMDVWGQGTTVTVSS
VL: B2 VL with V29I, V31L, D33N, M49I, S54I, K68E, T82A, D87N, R96S
notes: also called mAb D
As for B4, in assay [1], the binding result is “binds”. For the same molecule, in assay [3], the concentration for a half-maximal effect (EC50) stood at 3.3 nM. For the same molecule, in assay [5], the “IC50, inhibition of IL-8 release (K299 single cell assay with cyno CD30L LZ)” value came out at 5.4 nM. In addition, in assay [6], the “IC50, inhibition of IL-8 release (K299/Ramos dual cell assay)” value came out at 62 pM.

B5: Antibody F (antibody, V domains shown)
VH: QVQLQESGPGLVKPSETLSLTCTVSGGSISSYYWSWIRQPAGKGLEWIGRIFASGSTNYNPSLRSRVTMSRDTSKNQFSLKLSSVTAADTAVYYCAKERVGVQDYYHYSGMDVWGQGTTVTVSS
VL: B2 VL with V31L, D33N, H41Q, N55K, K68T, T82A, E83D, Y89S, R96S
notes: also called mAb F
B5: the binding result in assay [1] is recorded as “binds”. Moreover, the IC50 in assay [2] came out at 2 nM; in assay [4] it was 0.45 nM. In assay [3], the EC50 amounted to 2.3 nM. Besides, in assay [5], the “IC50, inhibition of IL-8 release (K299 single cell assay with cyno CD30L LZ)” value was found to be 5.5 nM. The “IC50, inhibition of IL-8 release (K299/Ramos dual cell assay)” value in assay [6] came to 60 pM.

B6: Antibody C (antibody, V domains shown)
VH: B3 VH
VL: QSALTQPASVSGSPGQSITISCTGTSSDIGLYDYVSWYQQHPDRAPKLIIFEVNNRPSGVSYRFSGSNSGNTASLTISGLQAEDEADYYCSSYTSSSTWVFGGGTKLTVL
notes: also called mAb C
B6: in assay [2], the 50% inhibitory concentration (IC50) amounted to 1.9 nM. In assay [3], this molecule had an EC50 of 1.7 nM. Besides, the “IC50, inhibition of IL-8 release (K299 single cell assay with cyno CD30L LZ)” value in assay [5] stood at 3.9 nM. For the same molecule, the “IC50, inhibition of IL-8 release (K299/Ramos dual cell assay)” value in assay [6] is 36 pM.
